Measurements from PMC9664404, “DNA-mediated proteolysis by neutrophil elastase enhances binding activities of the HMGB1 protein” (The Journal of Biological Chemistry, 2022).
One block for each binder: values may come before it.

Assays:
[1] = biological target: T1, HMGB1 full-length (disulfide form) (UniProt P09429 1-215); assay: fluorescence anisotropy; 200 mM NaCl; value only in figure; affinity lower than Δ39; 10 mM potassium phosphate pH 7.4, 200 mM NaCl (32G) or 150 mM NaCl (J1), 4 nM FAM-DNA, 25 °C; conditions: protein: recombinant; label: 5'-FAM; G-quadruplex
[2] = biological target: HMGB1 Δ44 (disulfide form) (UniProt P09429 1-171, del172-215); assay: fluorescence anisotropy; 200 mM NaCl; value only in figure; as strong as Δ39; 10 mM potassium phosphate pH 7.4, 200 mM NaCl (32G) or 150 mM NaCl (J1), 4 nM FAM-DNA, 25 °C; conditions: protein: recombinant; label: 5'-FAM; G-quadruplex
[3] = biological target: HMGB1 Δ40 (disulfide form) (UniProt P09429 1-175, del176-215); assay: as above; conditions: protein: recombinant; label: 5'-FAM; G-quadruplex
[4] = biological target: T2, HMGB1 Δ39 (disulfide form) (UniProt P09429 1-176, del177-215); assay: fluorescence anisotropy; 200 mM NaCl; value only in figure; affinity higher than full-length; 10 mM potassium phosphate pH 7.4, 200 mM NaCl (32G) or 150 mM NaCl (J1), 4 nM FAM-DNA, 25 °C; conditions: protein: recombinant; label: 5'-FAM; G-quadruplex
TLR4•MD-2 complex = biological target: T3, TLR4•MD-2 complex (UniProt O00206 24-631; Q9Y6Y9 19-160); assay: SPR; TLR4•MD-2 complex immobilised on a CM5 chip by amine coupling (1200 RU); HMGB1 proteins injected at 30 μl/min, 25 °C; 10 mM Hepes (pH 7.4), 150 mM NaCl, 3 mM EDTA, 0.005% v/v Tween-20; 1:1 binding model; Biacore T-100; three independent experiments; conditions: both partners purified
T3 construct: toll-like receptor 4 (TLR4) of the bought TLR4•MD-2 complex; MD-2 of the bought TLR4•MD-2 complex; also called toll-like receptor 4 • MD-2 complex; source: bought: R&D Systems (catalog no. 3146-TM-050), lyophilized
T3 sequence (O00206 24-631, chain 1 of 2): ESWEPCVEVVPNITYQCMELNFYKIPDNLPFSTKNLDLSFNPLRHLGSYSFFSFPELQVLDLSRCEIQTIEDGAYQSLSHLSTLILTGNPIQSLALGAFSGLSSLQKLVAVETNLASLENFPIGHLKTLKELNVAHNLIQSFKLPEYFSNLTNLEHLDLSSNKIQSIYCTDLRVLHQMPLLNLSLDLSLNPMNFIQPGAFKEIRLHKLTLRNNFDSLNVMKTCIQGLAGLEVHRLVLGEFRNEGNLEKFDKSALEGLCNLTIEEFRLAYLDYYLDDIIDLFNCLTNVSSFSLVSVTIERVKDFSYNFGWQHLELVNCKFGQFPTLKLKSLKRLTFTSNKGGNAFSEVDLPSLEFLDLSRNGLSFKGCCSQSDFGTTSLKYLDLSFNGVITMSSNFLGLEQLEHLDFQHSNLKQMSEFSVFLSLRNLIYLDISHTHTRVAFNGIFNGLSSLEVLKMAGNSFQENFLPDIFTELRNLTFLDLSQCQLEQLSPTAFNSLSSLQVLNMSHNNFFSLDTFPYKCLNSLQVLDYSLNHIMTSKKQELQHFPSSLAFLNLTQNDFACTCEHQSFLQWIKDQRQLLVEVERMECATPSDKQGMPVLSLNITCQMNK
T3 sequence (Q9Y6Y9 19-160, chain 2 of 2): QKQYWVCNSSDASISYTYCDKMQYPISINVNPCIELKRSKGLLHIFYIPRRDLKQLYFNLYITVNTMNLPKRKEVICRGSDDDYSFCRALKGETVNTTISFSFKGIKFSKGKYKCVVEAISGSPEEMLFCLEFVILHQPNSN

[5] = biological target: T1, HMGB1 full-length (disulfide form); assay: fluorescence anisotropy; 150 mM NaCl; value only in figure; affinity lower than Δ39; 10 mM potassium phosphate pH 7.4, 200 mM NaCl (32G) or 150 mM NaCl (J1), 4 nM FAM-DNA, 25 °C; conditions: protein: recombinant; label: 5'-FAM on J1A; four-way junction of 4 x 16-mer strands
[6] = biological target: T2, HMGB1 Δ39 (disulfide form); assay: fluorescence anisotropy; 150 mM NaCl; value only in figure; affinity higher than full-length; 10 mM potassium phosphate pH 7.4, 200 mM NaCl (32G) or 150 mM NaCl (J1), 4 nM FAM-DNA, 25 °C; conditions: protein: recombinant; label: 5'-FAM on J1A; four-way junction of 4 x 16-mer strands

Binder: AGGGCGGTGTGGGAAGAGGGAAGAGGGGGAGG (structured_DNA) [FAM-32G G-quadruplex]
- binding result [1]: binds
- binding result [2]: binds
- binding result [3]: binds
- binding result [4]: binds

B2: Holliday junction J1 (J1A/J1B/J1C/J1D) (structured_DNA)
DNA 1: CGCAATCCTGAGCACG
DNA 2: CGTGCTCACCGAATGC
DNA 3: GCATTCGGACTATGGC
DNA 4: GCCATAGTGGATTGCG
- binding result [5]: binds
- binding result [6]: binds

More lines, now with the values ahead:

- Kd (TLR4•MD-2 complex): 367 nM
B1: full-length (FL) disulfide HMGB1 protein (high-mobility-group-box-1, oxidized) (natural protein, UniProt P09429 1-215, looked up)
chain: MGKGDPKKPRGKMSSYAFFVQTCREEHKKKHPDASVNFSEFSKKCSERWKTMSAKEKGKFEDMAKADKARYEREMKTYIPPKGETKKKFKDPNAPKRPPSAFFLFCSEYRPKIKGEHPGLSIGDVAKKLGEMWNNTAADDKQPYEKKAAKLKEKYEKDIAAYRAKGKPDAAKKGVVKAEKSKKKKEEEEDEEDEEDEEEEEDEEDEDEEEDDDDE
modifications: disulfide bond between Cys23 and Cys45
notes: 215 residues (D/E repeats are residues 186-215); also called FL HMGB1; intact disulfide HMGB1; source: E. coli BL21(DE3), purified (SP-FF cation exchange, Resource-Q anion exchange, Sephacryl S-100 HR SEC)

- Kd (TLR4•MD-2 complex): 25 nM
B3: Δ39 variant of disulfide HMGB1 (lacks the C-terminal 39 residues) (domain or fragment, UniProt P09429 1-176, looked up)
chain: MGKGDPKKPRGKMSSYAFFVQTCREEHKKKHPDASVNFSEFSKKCSERWKTMSAKEKGKFEDMAKADKARYEREMKTYIPPKGETKKKFKDPNAPKRPPSAFFLFCSEYRPKIKGEHPGLSIGDVAKKLGEMWNNTAADDKQPYEKKAAKLKEKYEKDIAAYRAKGKPDAAKKGVV
modifications: disulfide bond between Cys23 and Cys45
notes: HMGB1 of GenBank CAG33144.1 with a stop codon at K177; lacks residues 177-215, ends at V176; also called Δ39 product; source: E. coli BL21(DE3), purified (SP-FF cation exchange, Resource S cation exchange, Sephacryl S-100 HR SEC)
